Patent US7053179 (WHITEHEAD INSTITUTE FOR BIOMEDICAL RESEARCH, dated 2006)

Molecular target: gp160 (precursor protein to gp120/gp41) expressed on CHO cells (HIV (strain ))
Experiment: cell-based or functional assay

B1: His-tagged C-peptide C37-H6 (peptide)
peptide: GGHTTWMEWDREINNYTSLIHSLIEESQNQQEKNEQELLGGHHHHHH
  IC50 in the cell-cell fusion assay: ~1 nM
